The values below come from patent US20140038900A1 (INSTITUT NATIONAL DE LA SANTE ET DE LA RECHERCHE MEDICALE …, published 2014).

The target of this test is heat-shock protein 70 (HSP70) (UniProt P0DMV8 1-641). Nature of the test: co-immunoprecipitation and Western blot, HCT116 cells. The protocol:
Transfected cells were first lysed in lysis buffer (50 mM Hepes (pH 7.6), 150 mM NaCl, 5 mM EDTA and 0.1% NP40) followed by immunoprecipitation using GFP-tag antibody. Immunoprecipitates were separated in a 10% SDS-polyacrylamide gel and then transferred to PVDF membranes using a wet transfer apparatus (BioRad, Hercules, Calif., USA). Membranes were first probed overnight using primary antibodies: HA-tag antibody was from Covance (Eurogentec, Angers, France), 14-3-3 from Santa-Cruz (TebuBio, Le Perray en Yvelines, France) and GFP-tag antibody from Millipore (Molsheim, France).
Background: Immunoblotting shows a protein as a band on a membrane.

heat-shock protein 70 (HSP70), sequence (P0DMV8 whole entry): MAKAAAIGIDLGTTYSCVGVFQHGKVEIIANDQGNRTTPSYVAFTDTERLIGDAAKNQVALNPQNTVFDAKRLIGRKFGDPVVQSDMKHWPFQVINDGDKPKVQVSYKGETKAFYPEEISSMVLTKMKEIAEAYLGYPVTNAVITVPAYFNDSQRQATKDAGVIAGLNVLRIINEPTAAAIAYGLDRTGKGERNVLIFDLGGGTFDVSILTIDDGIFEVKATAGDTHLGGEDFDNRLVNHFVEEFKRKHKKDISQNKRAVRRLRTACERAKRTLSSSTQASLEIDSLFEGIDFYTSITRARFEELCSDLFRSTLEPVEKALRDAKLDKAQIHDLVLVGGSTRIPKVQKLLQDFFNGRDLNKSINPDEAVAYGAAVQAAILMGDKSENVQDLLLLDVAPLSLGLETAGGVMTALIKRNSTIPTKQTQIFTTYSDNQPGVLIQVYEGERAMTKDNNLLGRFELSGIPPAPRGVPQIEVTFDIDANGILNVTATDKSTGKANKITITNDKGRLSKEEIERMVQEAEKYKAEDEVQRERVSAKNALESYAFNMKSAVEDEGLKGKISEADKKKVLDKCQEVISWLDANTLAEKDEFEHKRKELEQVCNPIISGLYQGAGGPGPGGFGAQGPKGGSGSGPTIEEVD

B1: mutated HSP110 lacking exon 9 (HSP110delE9), GFP-tagged (other)
chain: MSVVGLDVGSQSCYIAVARAGGIETIANEFSDRCTPSVISFGSKNRTIGVAAKNQQITHANNTVSNFKRFHGRAFNDPFIQKEKENLSYDLVPLKNGGVGIKVMYMGEEHLFSVEQITAMLLTKLKETAENSLKKPVTDCVISVPSFFTDAERRSVLDAAQIVGLNCLRLMNDMTAVALNYGIYKQDLPSLDEKPRIVVFVDMGHSAFQVSACAFNKGKLKVLGTAFDPFLGGKNFDEKLVEHFCAEFKTKYKLDAKSKIRALLRLYQECEKLKKLMSSNSTDLPLNIECFMNDKDVSGKMNRSQFEELCAELLQKIEVPLYSLLEQTHLKVEDVSAVEIVGGATRIPAVKERIAKFFGKDISTTLNADEAVARGCALQC
notes: Made by PCR from the GFP-HSP110 vector and cloned into the EGFp C2 vector; also called HSP110deIE9; HSP110ΔE9; not shown: GFP tag from the EGFp C2 vector into which the mutant HSP110 cDNA was cloned
On to B1, for which the binding result was “no binding”.
